# According to patent US20250066490A1 (PROFOUNDBIO US, published 2025):
# B1: 2A4P0L1, full IgG (antibody, V domains shown)
# VH: QVQLQESGPGLVKPSETLSLTCTVSGGSVSSDYYYWSWIRQPPGKGLEWLGYIYYSGSTNYNPSLKSRVTISVDTSKNQFSLKLRSVTTADTAVYYCARGDGDYGGNVFPYWGQGTLVTVSS
# VL: EIVLTQSPATLSLSPGERATLSCRASQSVSSYLAWYQQKPGQAPRLLIFDASNRATGIPARFSGSGSGTDFTLTISSLEPEDFAVYYCQQRLKFPLTFGGGTKVEIK
# What was measured:
# [1] = target: T1, human CD70 expressed on the cell surface of tumor cell lines (human, UniProt P32970 1-193); experiment: flow cytometry on U251 cells, PE anti-human Fc, MFI; same fit as Table 6, which prints it in nM
# T1 construct: whole, on cells
# T1 sequence (looked up): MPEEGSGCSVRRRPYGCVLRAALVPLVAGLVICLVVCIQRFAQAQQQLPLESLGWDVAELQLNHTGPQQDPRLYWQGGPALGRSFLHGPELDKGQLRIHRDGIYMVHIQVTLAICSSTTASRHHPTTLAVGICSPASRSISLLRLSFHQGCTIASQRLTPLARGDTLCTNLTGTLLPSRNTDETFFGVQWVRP
# Protocol: (§1) The lead antibodies were tested for binding to renal carcinoma cells and glioblastoma cells expressing CD70 on the cell surface by flow cytometry. […] U251 cells were cultured with MEM medium containing of 10% FBS and 1% NEAA+1 mM sodium pyruvate. DBTRG-05MG cells were cultured with DMEM medium (Gibco, Cat #C11995500BT) containing of 10% FBS. Each of the lead antibodies and the controls were incubated for 30 mins with the different cell lines (3×10⁵ cells per well) in 0.2 ml FACS buffer (1×PBS with 0.1% BSA) at 4° C. Then, the cells were pelleted, washed, and incubated at 4° C. for 30 mins with 100 μl of 1:200 diluted PE-conjugated anti human Fc (Abcam, Ab98596) in FACS buffer. The cells were pelleted again, washed with PBS, resuspended in FACS buffer and analyzed by flow cytometer (Beckman, CytoFLEX).
# (§2) Antibodies 2H8 and 2D2 had slightly higher binding ability to the cell lines than that of antibody 69A7.
# [2] = target: T1, human CD70 expressed on the cell …; experiment: flow cytometry on DBTRG-05MG cells
# Protocol: as §1, §2
# [3] = target: T2, CD70 ECD (antigen immobilized on the CM5 chip) (UniProt P32970 39-193); experiment: SPR (Biacore T200), CD70 ECD on CM5 chip, IgG as analyte
# T2 construct: extracellular domain; also called CD70 antigen
# T2 sequence (looked up): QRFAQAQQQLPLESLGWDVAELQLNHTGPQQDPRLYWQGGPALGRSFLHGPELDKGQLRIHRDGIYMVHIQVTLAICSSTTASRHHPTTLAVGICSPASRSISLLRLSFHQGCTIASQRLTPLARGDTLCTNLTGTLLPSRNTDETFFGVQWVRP
# Protocol: (§3) The immobilization of antigen CD70 ECD was performed at 25° C. with HBS-EP as the running buffer. Sensor chip surface of flow cells 1, 4 were activated by freshly mixed 50 mmol/L N-Hydroxy succinimide (NHS) and 200 mmol/L 1-ethyl-3-(3-dimethylaminopropyl) carbodiimide hydrochloride (EDC) for 420s (10 μL/min). Afterwards, CD70 antigen diluted in 10 mmol/L NaAC (pH 4.5) was injected into flow cell 4 to achieve conjugation of the appropriate Response Unit, while flow cell 1 was set as a blank. After the amine coupling reaction, the remaining active coupling sites on chip surface were blocked by 420s injection of 1 mol/L ethanolamine hydrochloride.
# (§4) The assay was performed at 25° C. and the running buffer was HBS-EP. Diluted antibodies were injected over the surface of flow cells 1 and 4 during the association phase, followed by injecting running buffer as the dissociation phase. All the data were processed using Biacore T200 Evaluation software version 3.1. Flow cell 1 and a blank injection of buffer in each cycle were used as a double reference for Response Units subtraction. Kinetic data of the interaction between the antibodies and CD70 antigen were obtained through affinity measurement.
# [4] = target: T3, cynomolgus CD70 recombinant protein (cynomolgus, UniProt A0A2K5WTU9 39-190); experiment: ELISA, IgG titrated on coated cynomolgus CD70 recombinant protein (2 µg/ml), anti-human Fc-HRP, OD450
# T3 construct: also called cyno-antigen; cynomolgus CD70 protein
# T3 sequence: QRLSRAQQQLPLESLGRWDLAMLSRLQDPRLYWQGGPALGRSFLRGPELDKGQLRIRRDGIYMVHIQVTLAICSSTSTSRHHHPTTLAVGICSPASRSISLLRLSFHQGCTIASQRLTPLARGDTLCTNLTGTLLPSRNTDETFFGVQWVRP
# Protocol: (§5) The binding specificity of the CD70 antibodies was tested by ELISA according to a standard protocol. Briefly, 96-well micro-plates were coated with 2 μg/ml of human or cynomolgus CD70 recombinant protein in PBS at 100 μl per well and incubated overnight at 4° C. The plates were washed twice with TBS+0.5% Tween20. 200 μL of blocking buffer (2% BSA in PBS) was added to each well, and the plates were incubated at 37° C. for 2 hours. The plates were washed using the wash buffer mentioned above. Serially diluted antibodies were added to the ELISA plates using 100 μl per well, and the plates were incubated for 1 hour at room temperature. Then plates were washed 3 times. HRP conjugated anti-human Fc antibody solution (Sigma, I18885-2ML, diluted with blocking buffer) was added to the plates using 100 μl per well. The plates were incubated at room temperature for 1 hour and then washed 3 times. Then the TMB solution was added to plates using 100 μl per well and the plates were placed at RT for 5-15 mins. Then the stop solution (2M H2SO4) was added using 50 μl per well. The absorbance was measured at A450 and A630.
# [5] = target: T4, human CD70 recombinant protein (human, UniProt P32970 39-193, limits assumed); experiment: ELISA, IgG titrated on coated human CD70 recombinant protein (2 µg/ml), anti-human Fc-HRP, OD450
# T4 construct: May be the same reagent as ACRO CDL-H5246; also called CD70 protein
# T4 sequence (looked up): T2 sequence (looked up)
# Protocol: as §5
# [6] = target: T2, CD70 ECD (antigen immobilized on the …); experiment: SPR (Biacore T200), CD70 ECD on CM5 chip; upper end tied to 2A4P0L1 by the KD values of Table 8
# Protocol: as §3, §4
# [7] = target: T1, human CD70 expressed on the cell …; experiment: flow cytometry on Caki-1 cells
# Protocol: as §1, §2
# [8] = target: T1, human CD70 expressed on the cell …; experiment: flow cytometry on 786-O cells
# Protocol: as §1, §2
# [9] = target: T1, human CD70 expressed on the cell …; experiment: flow cytometry on 786-O cells, PE anti-human Fc, MFI; same fit as Table 6, which prints it in nM
# Protocol: as §1, §2
# [10] = target: T1, human CD70 expressed on the cell …; experiment: flow cytometry on U251 cells
# Protocol: as §1, §2
# [11] = target: T1, human CD70 expressed on the cell …; experiment: cell-based or functional assay
# [12] = target: T1, human CD70 expressed on the cell …; experiment: flow cytometry on Caki-1 cells, PE anti-human Fc, MFI; same fit as Table 6, which prints it in nM
# Protocol: as §1, §2
# [13] = target: T1, human CD70 expressed on the cell …; experiment: flow cytometry on DBTRG-05MG cells, PE anti-human Fc, MFI; same fit as Table 6, which prints it in nM
# Protocol: as §1, §2
binder,measurement,setting,value
B1,EC50,[1],0.708 µg/mL
same,EC50,[2],5.84 nM
same,Kd,[3],38.6 nM
same,koff,[3],0.00197 s⁻¹
same,kon,[3],51000 M⁻¹ s⁻¹
same,EC50,[4],3.35 ng/mL
same,EC50,[5],0.263 µg/mL
same,fold improved affinity against parent antibody 69A7,[6],3 to 8 fold
same,EC50,[7],5.44 nM
same,EC50,[8],2.98 nM
same,EC50,[9],0.447 µg/mL
same,EC50,[10],4.72 nM
same,Internalization rate (%) on 786-O,[11],61%
same,Internalization rate (%) on Caki-1,[11],22%
same,EC50,[12],0.816 µg/mL
same,EC50,[13],0.876 µg/mL
